In paper PMC11919701:
Each block holds one substance with its values, some of them ahead of it.

Key:
[1] = target: GFP-fused CtMrs2 (His10-GFP-G4S-TEV-CtMrs2 106-539), wild type (Chaetomium thermophilum); test: native gel or EMSA; Coomassie-stained blue native PAGE of purified detergent-solubilised GFP-fused CtMrs2
[2] = target: GFP-fused CtMrs2 (His10-GFP-G4S-TEV-CtMrs2 106-539), wild type (Chaetomium thermophilum); test: SEC; purified GFP-fused CtMrs2 forms used for the limited proteolysis assay; final SEC buffer as buffer A but pH 8.0, DDM
[3] = target: GFP-fused CtMrs2 (His10-GFP-G4S-TEV-CtMrs2 106-539), wild type (Chaetomium thermophilum); test: SEC; detergent-solubilised GFP-fused CtMrs2 on Superose 6; buffer A (50 mM HEPES-NaOH pH 7.5, 150 mM NaCl, 10% glycerol) with 0.05% DDM and 2 mM MgCl2
[4] = target: GFP-fused CtMrs2 106-539 S396A;S397A (Chaetomium thermophilum); test: SEC; purified GFP-fused CtMrs2 forms used for the limited proteolysis assay; final SEC buffer as buffer A but pH 8.0, DDM
[5] = target: GFP-fused CtMrs2 106-539 E374R (Chaetomium thermophilum); test: as above
[6] = target: CtMrs2 106-539 lacking GFP (TEV-cleaved), in MSP1D1/POPC nanodiscs, closed-state sample with Mg2+ (Chaetomium thermophilum); test: cryo-EM structure; closed state: MSP1D1/POPC nanodiscs, 50 mM HEPES-Na pH 7.5, 100 mM NaCl, 2 mM MgCl2 plus additional 10 mM MgCl2; C1 and C5 maps
[7] = target: GFP-fused CtMrs2 106-539 E374A;E378A (Chaetomium thermophilum); test: SEC; purified GFP-fused CtMrs2 forms used for the limited proteolysis assay; final SEC buffer as buffer A but pH 8.0, DDM
[8] = target: CtMrs2 106-539 in MSP1D1/POPC nanodiscs, open-state sample prepared with EDTA (Chaetomium thermophilum); test: cryo-EM structure; open state: MSP1D1/POPC nanodiscs, 50 mM HEPES pH 7.5, 100 mM NaCl, 2 mM EDTA, 1 mM fluorinated Fos-choline-8; C1 and C5 maps
[9] = target: GFP-fused CtMrs2 106-539 S328A;T329A (Chaetomium thermophilum); test: SEC; purified GFP-fused CtMrs2 forms used for the limited proteolysis assay; final SEC buffer as buffer A but pH 8.0, DDM

Substance: GFP-fused CtMrs2 106-539 E374R (natural protein)
- stoichiometry N [5]: 5

Substance: CtMrs2 106-539 lacking GFP (TEV-cleaved), in MSP1D1/POPC nanodiscs, closed-state sample with Mg2+ (natural protein)
- stoichiometry N [6]: 5

Substance: GFP-fused CtMrs2 106-539 E374A;E378A (natural protein)
- stoichiometry N [7]: 5

Substance: GFP-fused CtMrs2 106-539 S328A;T329A (natural protein)
- stoichiometry N [9]: 5

Next, values leading:

- stoichiometry N [1]: 5
- stoichiometry N [2]: 5
- stoichiometry N [3]: 5
Substance: GFP-fused CtMrs2 (His10-GFP-G4S-TEV-CtMrs2 106-539), wild type (natural protein)

- stoichiometry N [4]: 5
Substance: GFP-fused CtMrs2 106-539 S396A;S397A (natural protein)

- stoichiometry N [8]: 5
Substance: CtMrs2 106-539 in MSP1D1/POPC nanodiscs, open-state sample prepared with EDTA (natural protein)
